{"source": "the DeepSol protein solubility set"}
{"experiment": "soluble on expression in E. coli; label from the status in PepcDB or PDB records"}
{"sequence": "LHLELEEKLAGIAAWEPTAPRLLNPGVSSGKALVASGVAAAHAREVLEDLGLRDVIPLWQVVQPYPLHTAFVERLLADYDEILVLEETTGVMELQLADRHRVKGKRSGFVPEVGELSPELVERLVAAFAGIPAAPSVAPPTGGGRRPTLCPGCPHRASFHAIKRAAPKGIYPSDIGCYTLGLNLGGVDTVLCMGAAVSQAAGFYHAYKLSGQVPDIVATIGDSTFFHAGIPPLIDAVVQDARFVLVILDNATTAMTGNQPTPALGWGAGGVPTATVDMEGLVKACGV", "soluble on expression in E. coli": "not soluble"}
{"sequence": "MLTEEKEDYLKAILTNNGDKNFVTNKILSQFLNIKPPSVSEMVGRLEKAGYVETKPYKGVRLTEDGLTHTLDIIKRHRLLELFLIEILKYNWEEVHQEAEILEHRISDLFVERLDSLLNFPETCPHGGVIPRNNEYKEKYITTILNYEPGDIVTIKRVRDKTDLLIYLSSKDISIGNEVEIVSKDEMNKVIIIKRNDNVIIVSYENAMNMFAEK", "soluble on expression in E. coli": "not soluble"}
{"sequence": "METSPVFIDYVTIRQEYFGGGLPVLNDGKVLKVDADGEIEYSTDVRCIIEGSYDSRVQVRCDGNTVEFTGNISRYGRRDNLFGYDWPTTIARINDLLSLLGLPPFTSGKLYKFADTGWSWSGARVSRIDLTCNYSTGSKESMHAVLCHMAGQHVGRQKGSLSPDSGTVEYGRGSKYVYGKLYAKYQELEKHRSKKSGSHVSDDVIDYCKTEGILREEFTLKSRFLLQNNLAYLGAITQDNLNQILEHHHHHH", "soluble on expression in E. coli": "not soluble"}
{"sequence": "MSLKILLLEDEVMLNESICEYLDSEGHHVESFFNGLAALEAIKENSYDLLVLDINVPGIDGLSFLEKIHELKIHVSVIYISALVDIEDISRAYTLGCHDYLKKPFHLKELSLRVDRIKLSSVVPRVHLRLCKNYSYDQENSTLLFNQEVQILTKRQAQIIDLLSRNRGRIVDFEQFQTYVWSEQIVDNATIRAEINRLKKNLKEDFVINVRGMGYMIDKEGHHHHHH", "soluble on expression in E. coli": "not soluble"}
{"sequence": "MSNENKTIHDFELNLICDFFSNMERQGPGSPEVTLKALSFIDNLTEKSLIADIGCGTGGQTMVLAGHVTGQVTGLDFLSGFIDIFNRNARQSGLQNRVTGIVGSMDDLPFRNEELDLIWSEGAIYNIGFERGLNEWRKYLKKGGYLAVSECSWFTDERPAEINDFWMDAYPEIDTIPNQVAKIHKAGYLPVATFILPENCWTDHYFTPKVAAQKIFLTKYAGNKIAEEFSMLQSIEEELYHKYKEYYGYTFFIAKKIRLLEHHHHHH", "soluble on expression in E. coli": "soluble"}
{"sequence": "MGSDKIHHHHHHMRKLLNTLYVTSPNTYLSLDGENIVILKDDVEALRVPLHNLESIIAFGYTGASPALMGACAKRNISLSFMKSNGKFLGRVVGEVRGNVTLRKAQYRLSDDEATSHRIAKSFILGKVYNSRWVVERATRDHGARLDVEKLKGVCQTLANALRLVENSKDLDQLRGVEGEAAAQYFRVLDDLILQQKEDFYFKCRNKRPPLDNVNAMLSFIYTLLAHDAAAALETVGLDPYVGFLHRDRPGRISLALDLMEELRAVFADRFVLSLINRREVNPSGFTRMENGAVVMDDDTRRDILKAWQSRKQEEIKHPFLQEKMEWGLVPYAQAMLLARFIRGDLDGYPAFMWK", "soluble on expression in E. coli": "not soluble"}
{"sequence": "MKPKKRQMEYLTRGLIAVQTEQGVFVSWRFLGTDHETTAFHLYRDGKRITRDPIAESTNFLDQNGTADSVYQVAAVNKGREEKLSKKARVWQENVLEVPLAKPEGGVTPDGKPYTYSANDASVGDIDGDGEYEMILKWDPSNSKDNAHDGYTGEVLIDAYKLDGTFLWRINLGRNIRAGAHYTQFMVYDLDGDGKAEIAMKTADGTTDGKGHIIGDEQADFRNEQGRILSGPEYLTVFKGETGEALTTVEYEPPRGKLEDWGDGYGNRMDRFLAGTAYLDGERPSLVMARGYYTRTVLVAYDFRNGRLKKRWVFDSNQPGHEAYAGQGNHSLSVADVDGDGKDEIIYGAMAVDHDGTGLYSTGLGHGDAMHVGDLDPSRKGLEVFQVHEDATKPYGLSLRDAGTGEILWGVHAGTDVGRGMAAHIDPSYKGSLVWGIDPPGNDGMSYGLFTSKGEKISDKAPSSANFAIWWDGDLVRELLDHDWDGTIGRPKIEKWDAENGCLKTIFQPAGVLSNNGTKGNPVLQANLFGDWREEVIWRTEDSSALRIYTTTHLTRHCFYTLMHDPVYRLGIAWQNTAYNQPPHTSFYLGTGMKKPPKPALYIAGSKAEAPLLEHHHHHH", "soluble on expression in E. coli": "soluble"}
{"sequence": "TKDWDWNIEINLGHNKNKLKKLYKTKNAEGQFVEKPIIISDGTSIAGTAKRVLQPGYPCDTYYLKEWAGVNPENGAPQWYKTVENEDGTLSRQKTSNYSEADQVKCGSSSPDIFGGFSTVLRWKDIDLNAVFGYSVGGQIYNYSRQEYDSDGAYNDRNQMKLQKGWNRWEKPGDIATHPVASYSNTSKSNSSSSRYLEKNDYLKLRSLSIGYNLKLPQYYINNMRIFFTGENLFCVTNYSGVDPEIPASDGSVIGTALPSVYPTVRKFMFGLNLTF", "soluble on expression in E. coli": "not soluble"}
{"sequence": "MSLRSAKHHFGAATSRGTRPSNEDTYQAGVIDIPAFAKRPPASLTIRNRSARVAGLRENRGADSASGDPQVFYFGIFDGHGGSECSTFMKETLHEYIQDTAAEFELQSSLRKAGENSASPDAESELPIRQGSNVARVQRLEKSLVQSWRNLVGGYFRRFVPPNFSHLAKHTAEESSSVPENNKGVTIEEILEYAFLRADLDFVSAQASREDDELSNVCRPLYQDDILYGPSRSQSLNIAGLRRFKGGSTASTVMISTPTPAPFWHPASPSSLLVSHVGDTRMLLCSTVTGEAIPLTSNHHPSSPIEANRLRRYAATFVTDSFGEERISGLANTRAFGDVQSKRIGVSAEPELRRFEIAPAEYSFLVLMSDGISEALTDQEVVDIIKEAKTPDEGARHVVNFATEVTRTGDNATCLVVRLGGWEREGHHHHHH", "soluble on expression in E. coli": "not soluble"}
{"sequence": "MTECIFCHQLKANQLLTQSQYFKVVFDIDPIQKGHLLLISKDHYTSLTQLPKEGHYDLIDLQAALVAKLEQHLPISGVTSVSNDKELMDEGTHFHLHLIPRLTNDSFWEGITINQENWDLTPFLKHL", "soluble on expression in E. coli": "not soluble"}
{"sequence": "CKYEGDAQKRLAIRPFPAEFVETVTLRDGQPILLRPILPEDEPLHAQFINSVSKEDLYKRFFSEVGEFNHEALANFTQIDYDREMAFVAVAFDKSGPSIIGVARALITPDNSDAEFAILVRSDLKGKGLGKILMEKIISYCKIKGTKQMSGMTMPTNRGMLMLAQRLGFEVDVQFADGTADMVLPLN", "soluble on expression in E. coli": "not soluble"}
{"sequence": "MSLASQSEAEVLIGVAGPMSGKLAWTGTQLRRGAEMAVANINAAGGVLGQQVRLIVADDFCDPRQALAAAEKLVADGAVFVIGHYCSGASIPASKIYAAAGVLQISPSSTNPMLTEQGHANVFRVCSRDDAQGHKAGNYLADHWGDSKIAILHDNTTYGKGLADETKKQLNMRGVTEAVYQSYTPGKDDYSVEVAALQTAHIAVLYLGGYHTEAALMVRAARDRAYPVQLISGDDTATEAFGLIAGPAAEGTLFTFVADPRRNAEAAEVVERFRAENFEPDSWTLHSYGAAEIWAQAVTKANSLDLQAVIAALREDQFDTVLGRIDFDKKGDLTVQSWVWYVWKSGEYVPVEEGHHHHHH", "soluble on expression in E. coli": "soluble"}
{"sequence": "KKTVRRILGVVEIGGSGENITKTELFKYDGISDSVVKTGICMWEEDVCQIAGITRDELMDDRINRKKVLKYMVNNNINDIRKVGDVLKQYQENPENVLKNIL", "soluble on expression in E. coli": "not soluble"}
{"sequence": "MKQADQTYRGQFKDDLYDGAGQLELADGSRYQGLFAKGKPNGAGVRSDASGNQFSGHFVNGQLQGAGTYDSVDGEQYIGEFKDNRLEGRGRYENADGDVWIGEFKDGSLIGEGELLGSDGSHYKGEFADWRLSGQGSLQLADGSKYIGGFLNDAYHGHGRLILPSGKVESGTWANGVRVRDQNGKLLPDPLDLALLNQGRLLDEALVRVPRSAPPIQLYSLVVAGDGQQSVFLREADYVSRMLKVRFGARGQVTLVNHRDHMATRPMATRENLSRAAATLAERSGPEDLVFIYLTSHGSQDHQLVLDQPRLQLADLAADELATALAPLKDRDKVIVISACYSGGYIAPLKDERTLIMTAARADRVSFGCSEEADFTYFGDALFAEALNQTDDLKQAFELARASVAEREQREGFEASEPQLWAPPAVLEHWHQLRQQQAEEALRNATQANVSKQAKMPGTHLEHHHHHH", "soluble on expression in E. coli": "soluble"}
{"sequence": "GPGSMMRTQQVDPDLTPVLAALASRINRDLPTVVELLCRRLVVQWNRAYLRKDWRFVENASRYLGWLFLLNVVEVDIIYQLLLKHLTSEKRREEDIDQAAKLFRETFKVMSLKERRSFHEQILTPFRDLLAMDDEELRLSTRSQAVLESCLKEVQEWERRKEREEAIPDYLVLFDLEMQQRHEMDLDEKYPTEDALDRYAFDAEYDTHEEQYEAVRKAILGEDWEVELLQQV", "soluble on expression in E. coli": "not soluble"}
{"sequence": "MGSDKIHHHHHHMFEEIAYMILADGNEKSRFEANAYLRAARSLRSITEDVEDIYNRGGIEALTSVEGIGKKIASYIEEYIKTGRIKRYDDLKIRYPVDFRDLSRVQGLGPRKIVSLYKYAGVKNIDDLKAALADHRIASIPGFGEKSEKEIAENIQIAEMSFRRIPLPQGYRTAMEIADEIERAAGTVRVSVAGSIRRMRDTVGDIDLLCVTSDPPRAIAAFTGSKHCQRVVSSGEKKVTIATDAGVTCDLRIIDKGSFGSALQYFTGSKDHNIKLRKIAIDRGLKLNEYGLFRGNSNLVENQGEEKIYAELGMQYIPPELREDRGEIDRAISMTLPELVEAGDIRGDLYISYEFIRKYGADVLKKMERLQYFGVVLGSPEEKEGIKSVMNDGRIFLGIELTSKTYAEDAGEFDFTVLDLSGFPDEASARGAIESVKPTFIRNVTGRTFSSGRKMDPANIFEAAAKSGSAVMITASNDAFDPVAEDIMPHREGLMFALASFAQRPDDLGDMTFGIGIARRAWISKDRIINTMDYEKIAKIMRRP", "soluble on expression in E. coli": "not soluble"}
{"sequence": "MPHNSVKHSTRLDVIPLKTAEKHPNSQRRFHVMSKPGGSKCNLDCQYCFYLHKDELLHQPKQPMMDDTTLEAFIKSYIESQDGHEIVFSWQGGEPTLLGLDYFKKIVQLQNKYRPSGVKIENDLQTNGILLNDEWCQFLKDNGFLVGLSIDGPKELHDKYRVTRSGKPTFNLVMAAAKRLQEHHVPFNSLVVVNRHNAKHPLDVYRFLTKELGATYIQFTPCVEAKDFTTTAPQFWNETMIPNKGSELAKPGHPMSIVTDWSVDPDDWGNFLNTVFVEWVNNDLGRVLVNLFETAVAQVMGKESQLCVTAEFCGKGLAMEHNGDVFSCDHYVYPEYKLGNIHDRGLNEFAFSIRQHGFGMAKRDSLPSYCKSCPHLKLCWGECPKNRLINTPNGEPGLNYLCSGIRAFFDESLPMLTGLSVLLQRQENTQK", "soluble on expression in E. coli": "not soluble"}
{"sequence": "MIETTLTGKTPDIGEENIKKLMTMFPEVVTEGKVDFEKLKQLLGEYVDDSNERYNFTWNGKGRALRLSQTPSLGTLRPCKEESKNWDTTQNLYIEGDNLEVLKLLQKSYYGKIKMIYIDPPYNTGKDFVYRDDFHDSLENYKRITGQVDGNGKAISTNTETSGRYHTDWLNMMYPRLRLARNLLSDDGVIFISIDDNEVDNLKKICNEIFGEDNFIANCVRKRRDSQANLSQNISPIHEYVLIYAKRFGNILNKVTPSLDMGSYKNPDNDPRGPYTTMPCTNVGGAVYSIVTPTGKTITDEWRFKKETFEKLLLDNRIVFPRNGEGKPRYKIFLSEKMAEGVLANTWLDKIASNQEGTREIKELFGGLLFNNPKPTGLLKFLLELGSSKDSIILDFFSGSATTAHAVMQLNAEDGGNRRFIMVQLPEPTDENSEAYKAGYMNISEIGKERIRRAGEKIKEEYKDKGNIENLDIGFKVFKLDTSNIRKWQPDYDNLEQSLMDYVDNFVEGRTELDVVYEIMLKYGLDLTYPVDEFTIAGKKVYSIGYGMLMICLDNEITTEVAKGILTKIKELSPESSRVVFKDNGFKTDSNKTNIKEILKSGGIEEFITI", "soluble on expression in E. coli": "not soluble"}
{"sequence": "MSLAPQRCHRFQSSAYRSNQWRYRGRCDSIQFAVDRRVFIAGLGLYGSSSGKAEYSVKIELKRLGVVLAQNLTKFMSDGSSNTFPVWFEHPVQVEQDTFYTASAVLDGSELSYFGQEGMTEVQCGKVAFQFQCSSDSTNGTGVQGGQIPELIFYAEGHHHHHH", "soluble on expression in E. coli": "soluble"}
